T1: In-house produced Avi-tagged CEACAM5 (UniProt P06731 35-685)
T1 chain: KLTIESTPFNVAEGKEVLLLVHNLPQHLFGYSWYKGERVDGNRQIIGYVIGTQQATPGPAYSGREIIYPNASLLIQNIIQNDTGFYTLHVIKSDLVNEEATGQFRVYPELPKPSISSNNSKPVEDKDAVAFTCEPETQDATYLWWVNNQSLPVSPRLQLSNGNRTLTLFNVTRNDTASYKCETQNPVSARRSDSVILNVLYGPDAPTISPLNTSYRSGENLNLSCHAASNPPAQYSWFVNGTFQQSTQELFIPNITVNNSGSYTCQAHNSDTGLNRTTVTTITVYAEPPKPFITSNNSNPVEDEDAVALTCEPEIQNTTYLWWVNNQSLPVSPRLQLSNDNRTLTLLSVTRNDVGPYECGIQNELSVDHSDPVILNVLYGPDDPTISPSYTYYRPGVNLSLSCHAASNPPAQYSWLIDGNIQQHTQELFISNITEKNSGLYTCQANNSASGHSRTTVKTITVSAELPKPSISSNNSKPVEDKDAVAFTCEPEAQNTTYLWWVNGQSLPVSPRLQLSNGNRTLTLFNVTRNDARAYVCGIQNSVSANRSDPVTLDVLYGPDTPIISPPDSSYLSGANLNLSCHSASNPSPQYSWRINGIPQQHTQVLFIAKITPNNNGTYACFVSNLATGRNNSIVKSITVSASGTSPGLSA

T2: In-house produced Avi-tagged N256A mutated CEACAM5 (UniProt P06731 35-685)
T2 chain: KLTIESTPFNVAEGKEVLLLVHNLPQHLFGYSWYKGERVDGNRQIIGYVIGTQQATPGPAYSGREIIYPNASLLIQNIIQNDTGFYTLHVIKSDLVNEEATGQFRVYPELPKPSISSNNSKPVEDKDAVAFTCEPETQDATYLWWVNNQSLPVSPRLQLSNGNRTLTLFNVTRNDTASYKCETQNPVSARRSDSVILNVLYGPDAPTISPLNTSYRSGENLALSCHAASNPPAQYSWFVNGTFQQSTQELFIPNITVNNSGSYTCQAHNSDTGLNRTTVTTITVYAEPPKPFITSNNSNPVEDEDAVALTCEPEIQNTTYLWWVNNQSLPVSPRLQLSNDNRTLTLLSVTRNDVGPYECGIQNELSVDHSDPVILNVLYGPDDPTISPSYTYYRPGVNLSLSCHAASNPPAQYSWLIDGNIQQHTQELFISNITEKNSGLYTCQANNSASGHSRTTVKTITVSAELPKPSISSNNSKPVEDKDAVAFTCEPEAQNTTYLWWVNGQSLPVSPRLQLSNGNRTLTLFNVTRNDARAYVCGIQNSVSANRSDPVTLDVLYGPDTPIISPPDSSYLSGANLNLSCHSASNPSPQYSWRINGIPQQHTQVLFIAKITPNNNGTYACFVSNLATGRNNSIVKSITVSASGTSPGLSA

T3: In-house produced Avi-tagged CEACAM6 (UniProt P40199 35-320)
T3 chain: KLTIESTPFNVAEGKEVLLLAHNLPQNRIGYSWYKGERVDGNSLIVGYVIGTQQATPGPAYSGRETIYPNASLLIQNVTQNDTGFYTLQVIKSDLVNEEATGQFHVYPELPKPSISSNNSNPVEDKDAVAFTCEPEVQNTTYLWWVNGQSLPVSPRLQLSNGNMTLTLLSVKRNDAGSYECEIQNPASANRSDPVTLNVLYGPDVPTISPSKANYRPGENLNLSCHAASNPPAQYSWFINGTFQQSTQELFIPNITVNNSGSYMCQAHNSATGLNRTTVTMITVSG

T4: In-house produced Avi-tagged N256A mutated CEACAM6 (UniProt P40199 35-320)
T4 chain: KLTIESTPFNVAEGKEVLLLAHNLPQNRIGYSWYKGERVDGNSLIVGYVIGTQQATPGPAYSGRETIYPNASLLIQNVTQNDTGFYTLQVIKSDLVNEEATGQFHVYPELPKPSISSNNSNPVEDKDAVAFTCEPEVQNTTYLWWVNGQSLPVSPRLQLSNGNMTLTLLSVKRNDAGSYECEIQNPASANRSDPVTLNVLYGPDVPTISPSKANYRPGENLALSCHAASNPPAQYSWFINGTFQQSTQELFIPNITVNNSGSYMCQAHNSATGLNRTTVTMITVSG


Columns and labels:
Experiment in all cases: BLI
CEACAM5 N256A = CEACAM5 N256A (UniProt P06731)
CEACAM5 = CEACAM5 (UniProt P06731)
CEACAM6 N256A = CEACAM6 N256A (UniProt P40199)
CEACAM6 = CEACAM6 (UniProt P40199)
[1] = target: T1, In-house produced Avi-tagged CEACAM5
[2] = target: T2, In-house produced Avi-tagged N256A …
[3] = target: T3, In-house produced Avi-tagged CEACAM6
[4] = target: T4, In-house produced Avi-tagged N256A …

| Kd (CEACAM5 N256A) [nM] | Kd (CEACAM5) [nM] | Kd (CEACAM6 N256A) [nM] | Kd (CEACAM6) [nM] | Kd [1] [nM] | Kd [2] [nM] | Kd [3] [nM] | Kd [4] [nM] | Molecule |
| --- | --- | --- | --- | --- | --- | --- | --- | --- |
| 0.401 | 0.321 | 0.217 | 0.126 | – | – | – | – | NEO-201 |
| – | – | – | – | 0.775 | 0.555 | 1.57 | 1.61 | EBC-123 (antibody, V domains shown) VH: QVQLVQSGAEVKKPGASVKVSCKASGNTFTSYVMHWVRQAPGQGLEWMGYINPYNDGTKYNEKFKGRVTMTRDTSTSTVYMELSSLRSEDTAVYYCARSTARATPYFYAMDYWGQGTLVTVSS VL: DIVMTQSPDSLAVSLGERATINCKSSQSLLWSVNQNSYLSWYQLKPGQPPKLLLYGASIRESGVPDRFSGSGSGTDFTLTISSLQAEDVAVYYCQHNHGSFLPYTFGGGTKLEIKR |

Second part, the molecule before the results:

| Molecule | Kd (CEACAM5 N256A) [nM] | Kd (CEACAM5) [nM] | Kd (CEACAM6 N256A) [nM] | Kd (CEACAM6) [nM] | Kd [1] [nM] | Kd [2] [nM] | Kd [3] [nM] | Kd [4] [nM] |
| --- | --- | --- | --- | --- | --- | --- | --- | --- |
| Tusamitamab | 1.27 | 1.37 | – | – | – | – | – | – |
| AB1 antibody (antibody, V domains shown) VH: QVQLVQSGAEVKKPGASVKVSCKASGNTFTSYVMHWVRQAPGQGLEWMGYINPYNDGTKYNEKFKGRVTMTRDTSTSTVYMELSSLRSEDTAVYYCARSTARATPYFYAMDYWGQGTLVTVSS VL: DIVMTQSPDSLAVSLGERATINCKSSQSLLWSVNQNSYLSWYQLKPGQPPKLLLYGASIRESGVPDRFSGSGSGTDFTLTISSLQAEDVAVYYCQHNHGSFLPYTFGGGTKLEIKR | – | – | – | – | 63.8 | > 200 | 71.5 | 3180 |

From US20240238433A1 (published 2024)
